Data on one molecule can be found in patent US9176064B2, “Bisubstrate fluorescent probes for protein kinase CK2” (University of Tartu, priority 2012, dated 2015).

Common to all, as to experiment: Kinase panel residual activity
What all share (format): biochemical
Holding throughout (settings): compound at 1 micromolar

In data set [1] the target is HIPK2 (Homo sapiens, UniProt Q9H2X6).
For data set [2], the target named is RSK2 (Homo sapiens, UniProt P51812).
Data set [3] concerns the target CK1γ2 (Homo sapiens, UniProt P78368).
Data set [4] addresses PKBb (Homo sapiens, UniProt P31751).
Data set [5] concerns the target T1, MAP4K3 (Homo sapiens, UniProt Q8IVH8).
T1 sequence (Q8IVH8 1-894): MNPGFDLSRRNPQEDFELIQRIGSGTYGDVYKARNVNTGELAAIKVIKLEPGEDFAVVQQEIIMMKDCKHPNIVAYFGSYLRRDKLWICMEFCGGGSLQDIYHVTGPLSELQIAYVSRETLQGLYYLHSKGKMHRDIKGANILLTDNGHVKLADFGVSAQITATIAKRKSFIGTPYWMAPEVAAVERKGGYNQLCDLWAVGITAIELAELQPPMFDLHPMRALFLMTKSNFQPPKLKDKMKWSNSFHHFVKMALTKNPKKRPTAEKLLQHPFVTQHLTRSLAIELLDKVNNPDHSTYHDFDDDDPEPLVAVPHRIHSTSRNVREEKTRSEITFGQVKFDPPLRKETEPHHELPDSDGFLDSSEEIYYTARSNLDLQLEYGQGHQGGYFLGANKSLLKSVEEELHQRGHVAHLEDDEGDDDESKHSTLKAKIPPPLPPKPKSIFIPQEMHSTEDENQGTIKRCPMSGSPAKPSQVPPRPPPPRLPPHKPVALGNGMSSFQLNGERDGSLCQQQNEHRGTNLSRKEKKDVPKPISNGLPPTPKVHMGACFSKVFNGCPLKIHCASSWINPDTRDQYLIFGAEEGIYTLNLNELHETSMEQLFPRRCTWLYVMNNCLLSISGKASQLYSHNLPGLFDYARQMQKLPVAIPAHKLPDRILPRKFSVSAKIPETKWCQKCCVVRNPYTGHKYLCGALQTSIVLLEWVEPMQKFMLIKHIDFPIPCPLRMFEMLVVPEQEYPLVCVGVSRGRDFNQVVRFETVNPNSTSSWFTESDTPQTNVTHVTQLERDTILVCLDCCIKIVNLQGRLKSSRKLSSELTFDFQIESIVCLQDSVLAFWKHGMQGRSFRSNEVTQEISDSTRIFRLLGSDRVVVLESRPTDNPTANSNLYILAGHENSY

The target in data set [6] is RSK1 (Homo sapiens, UniProt Q15418).
Sequence of RSK1 (Q15418 whole entry, species assumed): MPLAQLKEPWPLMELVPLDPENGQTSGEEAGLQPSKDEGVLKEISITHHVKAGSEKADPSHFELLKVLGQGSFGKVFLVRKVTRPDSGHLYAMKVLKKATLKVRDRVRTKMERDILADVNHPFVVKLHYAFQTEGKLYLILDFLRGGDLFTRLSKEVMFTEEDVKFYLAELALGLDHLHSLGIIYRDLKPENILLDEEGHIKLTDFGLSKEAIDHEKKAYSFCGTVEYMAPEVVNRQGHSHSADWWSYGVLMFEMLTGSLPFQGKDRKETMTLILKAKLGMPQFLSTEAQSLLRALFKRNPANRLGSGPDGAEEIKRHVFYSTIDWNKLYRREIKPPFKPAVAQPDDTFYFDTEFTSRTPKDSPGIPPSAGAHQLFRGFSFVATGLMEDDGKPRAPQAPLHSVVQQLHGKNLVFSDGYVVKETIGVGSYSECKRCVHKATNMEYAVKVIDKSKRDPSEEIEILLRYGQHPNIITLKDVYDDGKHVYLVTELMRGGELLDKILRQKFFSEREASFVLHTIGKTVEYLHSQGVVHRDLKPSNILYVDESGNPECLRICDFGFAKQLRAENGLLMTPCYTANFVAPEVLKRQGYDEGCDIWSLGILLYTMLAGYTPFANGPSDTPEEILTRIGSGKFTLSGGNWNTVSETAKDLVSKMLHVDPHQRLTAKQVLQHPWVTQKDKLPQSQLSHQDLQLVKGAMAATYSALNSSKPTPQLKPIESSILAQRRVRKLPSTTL
Data set [7] concerns the target MAPKAP-K2 (Homo sapiens, UniProt P49137).
Data set [8] has as its target CAMKKb (Homo sapiens, UniProt Q96RR4).
The target of data set [9] is MELK (Homo sapiens, UniProt Q14680).
Sequence of MELK (Q14680 whole entry, species assumed): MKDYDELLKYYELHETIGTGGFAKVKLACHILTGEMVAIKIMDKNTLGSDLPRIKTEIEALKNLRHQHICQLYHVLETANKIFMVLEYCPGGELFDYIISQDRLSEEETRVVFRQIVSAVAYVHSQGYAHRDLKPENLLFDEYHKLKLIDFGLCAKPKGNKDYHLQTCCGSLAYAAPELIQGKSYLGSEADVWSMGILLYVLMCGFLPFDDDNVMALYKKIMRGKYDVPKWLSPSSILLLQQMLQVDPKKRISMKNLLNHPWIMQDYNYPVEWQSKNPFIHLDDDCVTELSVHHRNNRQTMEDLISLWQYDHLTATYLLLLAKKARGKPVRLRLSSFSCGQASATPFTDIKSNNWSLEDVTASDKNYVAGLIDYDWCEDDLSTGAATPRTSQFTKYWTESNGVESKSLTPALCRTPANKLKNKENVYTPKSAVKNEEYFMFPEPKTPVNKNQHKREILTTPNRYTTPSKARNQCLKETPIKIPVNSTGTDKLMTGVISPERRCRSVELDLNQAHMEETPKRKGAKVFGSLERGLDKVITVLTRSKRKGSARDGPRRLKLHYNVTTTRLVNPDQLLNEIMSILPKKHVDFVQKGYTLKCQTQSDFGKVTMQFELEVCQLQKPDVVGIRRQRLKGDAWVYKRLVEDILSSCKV
Data set [10] has as its target PKCa (Homo sapiens, UniProt P17252).
In data set [11] the target is MKK1 (Homo sapiens, UniProt Q02750).
Sequence of MKK1 (Q02750 whole entry, species assumed): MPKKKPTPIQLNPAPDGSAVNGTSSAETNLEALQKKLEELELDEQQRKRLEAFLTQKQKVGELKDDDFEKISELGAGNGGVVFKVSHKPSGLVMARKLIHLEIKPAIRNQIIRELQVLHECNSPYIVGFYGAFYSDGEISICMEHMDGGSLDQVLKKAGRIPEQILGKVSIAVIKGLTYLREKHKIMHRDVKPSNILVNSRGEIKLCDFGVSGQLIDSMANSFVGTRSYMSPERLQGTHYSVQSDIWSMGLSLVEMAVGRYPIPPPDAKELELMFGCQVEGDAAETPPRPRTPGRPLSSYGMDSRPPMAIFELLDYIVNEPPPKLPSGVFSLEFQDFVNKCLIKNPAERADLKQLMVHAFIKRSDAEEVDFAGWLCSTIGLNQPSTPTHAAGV
For data set [12], the target named is JNK2 (Homo sapiens, UniProt P45984).
Sequence of JNK2 (P45984 whole entry, species assumed): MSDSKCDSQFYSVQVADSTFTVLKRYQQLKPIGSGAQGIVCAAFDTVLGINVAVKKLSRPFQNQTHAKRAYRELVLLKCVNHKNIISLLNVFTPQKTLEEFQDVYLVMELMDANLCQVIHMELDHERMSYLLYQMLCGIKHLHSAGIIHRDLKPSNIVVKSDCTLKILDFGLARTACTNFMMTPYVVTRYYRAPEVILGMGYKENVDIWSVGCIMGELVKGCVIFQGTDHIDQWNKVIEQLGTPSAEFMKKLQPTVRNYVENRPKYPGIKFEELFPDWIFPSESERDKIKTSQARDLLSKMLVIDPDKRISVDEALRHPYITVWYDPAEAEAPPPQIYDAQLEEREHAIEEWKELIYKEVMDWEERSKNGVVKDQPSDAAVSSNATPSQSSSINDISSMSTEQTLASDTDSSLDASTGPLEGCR
Data set [13] deals with T2, ASK1 (Homo sapiens, UniProt Q99683).
T2 sequence (Q99683 1-1374): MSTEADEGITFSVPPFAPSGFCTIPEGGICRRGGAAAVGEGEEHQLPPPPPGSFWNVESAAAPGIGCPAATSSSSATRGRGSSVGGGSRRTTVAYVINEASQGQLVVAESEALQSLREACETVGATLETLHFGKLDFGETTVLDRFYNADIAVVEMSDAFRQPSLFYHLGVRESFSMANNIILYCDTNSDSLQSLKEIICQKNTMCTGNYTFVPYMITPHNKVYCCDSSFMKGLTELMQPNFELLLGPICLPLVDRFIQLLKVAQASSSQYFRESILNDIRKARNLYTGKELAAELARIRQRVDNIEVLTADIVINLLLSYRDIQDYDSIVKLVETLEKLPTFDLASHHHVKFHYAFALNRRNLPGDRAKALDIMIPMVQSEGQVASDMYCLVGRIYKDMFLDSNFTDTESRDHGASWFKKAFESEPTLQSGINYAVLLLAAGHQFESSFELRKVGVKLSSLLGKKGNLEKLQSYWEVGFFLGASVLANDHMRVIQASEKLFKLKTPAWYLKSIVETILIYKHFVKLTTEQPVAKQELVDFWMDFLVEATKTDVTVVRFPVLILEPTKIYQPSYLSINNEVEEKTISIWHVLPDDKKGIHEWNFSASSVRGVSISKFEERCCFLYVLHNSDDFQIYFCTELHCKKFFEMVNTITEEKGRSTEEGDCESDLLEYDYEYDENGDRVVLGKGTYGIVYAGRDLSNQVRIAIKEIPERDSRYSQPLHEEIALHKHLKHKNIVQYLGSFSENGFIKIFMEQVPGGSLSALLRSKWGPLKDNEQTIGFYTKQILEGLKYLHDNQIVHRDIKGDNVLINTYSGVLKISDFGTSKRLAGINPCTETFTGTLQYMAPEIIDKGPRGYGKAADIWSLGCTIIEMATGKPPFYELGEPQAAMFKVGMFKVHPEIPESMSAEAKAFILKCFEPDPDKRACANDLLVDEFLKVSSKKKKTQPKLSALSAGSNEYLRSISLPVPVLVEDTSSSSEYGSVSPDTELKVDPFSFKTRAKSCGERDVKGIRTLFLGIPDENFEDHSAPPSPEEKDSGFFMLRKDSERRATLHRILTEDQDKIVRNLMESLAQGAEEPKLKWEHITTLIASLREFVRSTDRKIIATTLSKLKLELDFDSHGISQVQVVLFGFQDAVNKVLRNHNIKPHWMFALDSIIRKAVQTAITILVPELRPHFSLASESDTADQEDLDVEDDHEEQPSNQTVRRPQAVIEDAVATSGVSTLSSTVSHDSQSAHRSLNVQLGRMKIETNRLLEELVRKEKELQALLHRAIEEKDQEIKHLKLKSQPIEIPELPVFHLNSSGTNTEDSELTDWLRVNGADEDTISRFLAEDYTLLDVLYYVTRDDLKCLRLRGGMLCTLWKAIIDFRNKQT

Structures are written as SMILES. Where a SMILES comes first, the peptide text is derived from it. [ ]: non-standard residue; d: D form. The star is where a group is joined. X1 = O=C(CCCCCCCn1cnc2c(Br)c(Br)c(Br)c(Br)c21)*

Sequence of MAPKAP-K2 (P49137 whole entry, species assumed): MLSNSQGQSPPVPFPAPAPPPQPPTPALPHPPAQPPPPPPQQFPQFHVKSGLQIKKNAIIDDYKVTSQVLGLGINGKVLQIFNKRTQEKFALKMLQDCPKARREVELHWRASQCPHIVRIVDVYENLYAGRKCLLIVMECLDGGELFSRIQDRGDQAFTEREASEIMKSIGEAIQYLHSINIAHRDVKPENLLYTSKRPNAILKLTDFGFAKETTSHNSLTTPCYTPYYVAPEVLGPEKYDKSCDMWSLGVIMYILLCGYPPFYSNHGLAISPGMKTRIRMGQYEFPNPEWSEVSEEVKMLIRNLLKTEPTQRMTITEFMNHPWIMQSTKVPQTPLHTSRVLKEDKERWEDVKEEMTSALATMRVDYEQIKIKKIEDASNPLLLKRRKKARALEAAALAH
Sequence of CK1γ2 (P78368 whole entry): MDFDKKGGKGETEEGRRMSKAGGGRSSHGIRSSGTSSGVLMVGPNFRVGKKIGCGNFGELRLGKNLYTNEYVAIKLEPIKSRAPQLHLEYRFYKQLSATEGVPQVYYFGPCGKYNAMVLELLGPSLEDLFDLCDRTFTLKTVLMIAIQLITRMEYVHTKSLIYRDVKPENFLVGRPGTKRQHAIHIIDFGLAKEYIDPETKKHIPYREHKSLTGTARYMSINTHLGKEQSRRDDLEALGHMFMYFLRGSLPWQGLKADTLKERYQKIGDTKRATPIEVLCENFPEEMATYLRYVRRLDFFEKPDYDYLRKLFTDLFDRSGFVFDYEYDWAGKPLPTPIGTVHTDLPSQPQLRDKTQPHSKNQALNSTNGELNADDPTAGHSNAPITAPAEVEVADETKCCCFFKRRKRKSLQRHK
Sequence of HIPK2 (Q9H2X6 whole entry, species assumed): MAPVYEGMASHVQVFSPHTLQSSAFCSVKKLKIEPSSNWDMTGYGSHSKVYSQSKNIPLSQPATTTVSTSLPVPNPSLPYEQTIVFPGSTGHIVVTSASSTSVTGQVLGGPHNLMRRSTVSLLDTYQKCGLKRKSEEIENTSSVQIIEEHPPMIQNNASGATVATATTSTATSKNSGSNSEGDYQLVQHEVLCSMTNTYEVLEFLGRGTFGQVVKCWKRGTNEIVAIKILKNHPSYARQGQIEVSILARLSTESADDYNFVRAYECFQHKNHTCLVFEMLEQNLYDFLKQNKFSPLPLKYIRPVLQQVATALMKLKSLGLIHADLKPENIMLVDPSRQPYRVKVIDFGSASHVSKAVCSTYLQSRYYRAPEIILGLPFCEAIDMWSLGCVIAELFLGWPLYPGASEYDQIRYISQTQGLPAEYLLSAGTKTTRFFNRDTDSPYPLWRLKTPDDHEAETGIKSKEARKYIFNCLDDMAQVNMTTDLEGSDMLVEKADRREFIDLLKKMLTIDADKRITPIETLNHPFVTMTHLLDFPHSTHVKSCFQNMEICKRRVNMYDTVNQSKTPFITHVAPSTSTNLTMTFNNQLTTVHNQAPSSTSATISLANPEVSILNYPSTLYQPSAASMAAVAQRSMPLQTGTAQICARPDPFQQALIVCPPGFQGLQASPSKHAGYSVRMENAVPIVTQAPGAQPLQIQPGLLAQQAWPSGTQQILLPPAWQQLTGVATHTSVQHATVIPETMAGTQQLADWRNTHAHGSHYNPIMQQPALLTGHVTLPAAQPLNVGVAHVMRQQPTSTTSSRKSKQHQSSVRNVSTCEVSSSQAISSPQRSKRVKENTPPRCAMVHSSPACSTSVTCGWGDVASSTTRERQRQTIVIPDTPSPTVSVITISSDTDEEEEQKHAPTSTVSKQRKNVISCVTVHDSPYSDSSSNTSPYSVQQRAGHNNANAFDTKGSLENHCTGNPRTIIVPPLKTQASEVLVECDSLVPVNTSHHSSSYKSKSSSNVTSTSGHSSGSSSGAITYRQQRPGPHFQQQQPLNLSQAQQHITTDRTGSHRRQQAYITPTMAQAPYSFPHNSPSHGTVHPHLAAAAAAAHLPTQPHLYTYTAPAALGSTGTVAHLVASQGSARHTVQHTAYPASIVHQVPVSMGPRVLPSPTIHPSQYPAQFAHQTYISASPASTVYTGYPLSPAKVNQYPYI
Sequence of CAMKKb (Q96RR4 whole entry, species assumed): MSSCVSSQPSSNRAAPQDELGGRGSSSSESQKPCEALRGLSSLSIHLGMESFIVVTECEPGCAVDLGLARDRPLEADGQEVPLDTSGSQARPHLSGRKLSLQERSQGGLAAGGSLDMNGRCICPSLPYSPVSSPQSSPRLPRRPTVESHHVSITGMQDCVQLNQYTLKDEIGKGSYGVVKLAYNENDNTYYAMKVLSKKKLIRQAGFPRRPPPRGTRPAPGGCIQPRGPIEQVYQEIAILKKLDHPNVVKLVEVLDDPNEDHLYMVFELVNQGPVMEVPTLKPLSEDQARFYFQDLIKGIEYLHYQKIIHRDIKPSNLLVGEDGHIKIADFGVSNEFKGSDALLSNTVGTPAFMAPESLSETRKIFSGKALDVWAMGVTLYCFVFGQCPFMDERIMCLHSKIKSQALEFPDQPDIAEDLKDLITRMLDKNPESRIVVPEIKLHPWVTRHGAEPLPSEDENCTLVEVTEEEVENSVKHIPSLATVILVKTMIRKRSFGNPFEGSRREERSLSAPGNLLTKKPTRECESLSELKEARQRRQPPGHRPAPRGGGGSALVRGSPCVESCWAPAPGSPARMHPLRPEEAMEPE

For the molecule `NCCCC[C@H](NC(=O)[C@H](CC(=O)O)NC(=O)[C@H](CC(=O)O)NC(=O)[C@H](CC(=O)O)NC(=O)[C@H](CC(=O)O)NC(=O)[C@H](CC(=O)O)NC(=O)[C@@H](CC(=O)O)NC(=O)CCCCCCCn1cnc2c(Br)c(Br)c(Br)c(Br)c21)C(=O)O` [TBBI-OcA-(D-Asp)-(L-Asp)5-(L-Lys)-OH] (X1-[dD]DDDDDK-OH), the remaining activity at 1 µM in data set [1] was 36%; in [2], 70%; in [3], 71%; in [4], 72%; in data set [5], 86%; in data set [6], 88%. For the same molecule, the remaining activity at 1 µM in data set [7] came to 89%; in data set [8] it was 91%; in [9] it was 92%; in [10], 94%; in [11] it was 101%; in data set [12], 105%. Moreover, the remaining activity at 1 µM in [13] worked out at 114%.
